Reference: patent US7049398B1, “Melanocortin metallopeptide constructs, combinatorial libraries and applications” (Palatin Technologies, Inc., priority 1999, dated 2006)
Primed or numbered codes have the meaning given here. Where no end group is shown, it is not given here. [ ]: non-standard residue; d: D form. The star is where a group is joined. Phe(2,4-Cl2) = N[C@@H](Cc1ccc(Cl)cc1Cl)C(=O)O; Phe(2-Cl) = N[C@@H](Cc1ccccc1Cl)C(=O)O; Phe(4-F) = N[C@@H](Cc1ccc(F)cc1)C(=O)O; 2Nal = N[C@@H](Cc1ccc2ccccc2c1)C(=O)O; Hydrocinnamoyl = O=C(CCc1ccccc1)*; Tic = O=C(O)[C@@H]1Cc2ccccc2CN1; Aic = NC1(C(=O)O)Cc2ccccc2C1; Phg = N[C@H](C(=O)O)c1ccccc1; Tle = CC(C)(C)[C@H](N)C(=O)O; 4Abz = Nc1ccc(C(=O)O)cc1; Heptanoyl = CCCCCCC(=O)*; Nle = CCCC[C@H](N)C(=O)O; 2Abz = Nc1ccccc1C(=O)O; Bz′ = not defined here; Ac3c = NC1(C(=O)O)CC1; Tfa = O=C(C(F)(F)F)*; Bn = c1ccc(C*)cc1; βAla = NCCC(=O)O

What was measured:
hMC4-R = molecular target: T1, hMC4-R (Homo sapiens, UniProt P32245); test: Competitive inhibition binding assay, 125I-NDP-alpha-MSH, hMC4-R membranes; conditions: 0.4 nM 125I-NDP-alpha-MSH
T1 construct: expressed in transfected cells; host or cells: 293 cells
T1 sequence (P32245 whole entry): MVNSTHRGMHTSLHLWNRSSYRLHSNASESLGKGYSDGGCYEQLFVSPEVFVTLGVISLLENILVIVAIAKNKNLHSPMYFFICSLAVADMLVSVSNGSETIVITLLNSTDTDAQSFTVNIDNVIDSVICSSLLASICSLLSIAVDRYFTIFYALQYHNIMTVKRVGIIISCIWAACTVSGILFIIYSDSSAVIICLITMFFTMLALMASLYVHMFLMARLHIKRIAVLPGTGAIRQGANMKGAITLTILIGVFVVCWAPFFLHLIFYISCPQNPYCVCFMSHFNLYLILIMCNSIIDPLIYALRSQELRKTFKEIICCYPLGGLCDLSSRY
Procedure: (§1) Representative Peptides of this Invention. Representative peptides of this invention were made using library and synthesis methods described herein, and selected peptides were tested using a binding assay. […] The peptides were synthesized using conventional peptide synthesis methods, and were complexed with rhenium using the methods described herein.
(§2) The competitive inhibition binding assay was conducted using membranes prepared from hMC4-R and B-16 mouse melanoma cells (containing MC1-R) using 0.4 nM ^125I-NDP-alpha-MSH (New England Nuclear, Boston, Mass., USA) in 50 mM HEPES buffer containing 1 mM MgCl2, 2 mM CaCl2, and 5 mM KCl, at pH 7.2. The assay tube also contained a chosen concentration of the test peptide of this invention, complexed to a rhenium metal ion as indicated, for determining its efficacy in inhibiting the binding of ^125I-NDP-alpha-MSH to its receptor. Non-specific binding was measured by complete inhibition of binding of ^125I-NDP-alpha-MSH in the assay with the presence of 1 μM alpha-MSH. Incubation was for 90 minutes at room temperature, after which the assay mixture was filtered and the membranes washed three times with ice cold buffer. The filter was dried and counted in a gamma counter for remaining radioactivity bound to the membranes. 100% specific binding was defined as the difference in radioactivity (cpm) bound to cell membranes in the absence and presence of 1 μM alpha-MSH. The cpm obtained in presence of test compounds were normalized with respect to 100% specific binding to determine the percent inhibition of ^125I-NDP-alpha MSH binding. […]

[1] = molecular target: T2, MC1-R (B-16 mouse melanoma cells) (Mus musculus, UniProt Q01727); test: Competitive inhibition binding assay, 125I-NDP-alpha-MSH, B-16 mouse melanoma cell membranes; conditions: 0.4 nM 125I-NDP-alpha-MSH
T2 construct: B-16 mouse melanoma cells (containing MC1-R); endogenous in cells; host or cells: B-16 mouse melanoma cells
T2 sequence (Q01727 whole entry): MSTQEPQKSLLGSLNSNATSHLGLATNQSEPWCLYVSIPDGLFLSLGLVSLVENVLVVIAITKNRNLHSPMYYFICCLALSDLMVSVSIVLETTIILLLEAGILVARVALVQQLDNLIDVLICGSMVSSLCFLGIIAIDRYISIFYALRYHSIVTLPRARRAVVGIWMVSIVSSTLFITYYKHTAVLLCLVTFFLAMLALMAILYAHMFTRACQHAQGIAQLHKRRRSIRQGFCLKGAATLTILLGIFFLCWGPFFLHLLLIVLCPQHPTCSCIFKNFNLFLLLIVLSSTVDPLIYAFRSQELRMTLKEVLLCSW
Procedure: as §1, §2

[2] = Conc. cut off 10 μM, hMC4-R membranes
[3] = Conc. cut off 10 μM, B-16 mouse melanoma cell membranes
[4] = Conc. cut off 1 μM test peptide
[5] = Conc. cut off 1 μM, hMC4-R membranes
[6] = Conc. cut off 1 μM, B-16 mouse melanoma cell membranes
[7] = Conc. cut off 10 μM test peptide

Row | Substance | % Inhibition MC4-R (hMC4-R; [4]) | % Inhibition MC1-R (B-16) [1, 4] | % Inhibition MC4-R (hMC4-R; [5]) | % Inhibition MC1-R (B-16) [1, 6] | also measured
1 | PL-1364 (Ac-WFHCR-NH2; also: ReO[V] metal complex) |  |  |  |  | % Inhibition MC4-R (hMC4-R; [2]): 72%; % Inhibition MC1-R (B-16) [1, 3]: 74%
2 | PL-1595 (Ac-[Nle]AH[Aic]RCW-NH2; also: ReO[V] metal complex) | 3% | 60% |  |  | 
3 | PL-1513 (Ac-RFFNFC-NH2; also: ReO[V] metal complex) | 18% | 23% |  |  | 
4 | PL-1636 (Ac-[Nle]AH[Ac3c]RCW-NH2; also: ReO[V] complex) | 38% | 20% |  |  | 
5 | PL-1300 (Heptanoyl-ARCW-NH2; also: ReO[V] metal complex) |  |  | 22% | 62% | 
6 | PL-1112 (HFCW-NH2; also: ReO complex) |  |  |  |  | % Inhibition MC4-R (hMC4-R; [2]): 8%; % Inhibition MC1-R (B-16) [1, 3]: 0%
7 | PL-1366 (Ac-HFWCR-NH2; also: ReO[V] metal complex) |  |  |  |  | % Inhibition MC4-R (hMC4-R; [2]): 64%; % Inhibition MC1-R (B-16) [1, 3]: 78%
8 | PL-811 (Ac-H[Phg]CW-NH2; also: ReO[V] complex) |  |  | 0% | −5% | 
9 | PL-1509 (Ac-RFCFNAF-NH2; also: ReO[V] metal complex) | 30% | 19% |  |  | 
10 | PL-1514 (Ac-RFFNFC-NH2; also: ReO[V] metal complex) | 30% | 28% |  |  | 
11 | PL-1649 (Ac-HGGCW-NH2; also: ReO[V] metal complex) |  |  |  |  | % Inhibition MC4-R (hMC4-R; [7]): 62%; % Inhibition MC1-R (B-16) [1, 7]: 19%
12 | PL-1412 (FHCW-NH2; also: ReO[V] metal complex) |  |  | 54% | 43% | 
13 | PL-1394 (Ac-HRWCF-NH2; also: ReO[V] metal complex) |  |  | 0% | 27% | % Inhibition MC4-R (hMC4-R; [2]): 59%; % Inhibition MC1-R (B-16) [1, 3]: 84%
14 | PL-1478 (Ac-RFFCS-NH2; also: ReO[V] metal complex) | 21% | 28% |  |  | 
15 | PL-1416 (Ac-[Nle]AHFRCW-NH2; also: ReO[V] metal complex) |  |  | 35% | 85% | 
16 | PL-1405 (Heptanoyl-FHCW-NH2; also: ReO[V] metal complex) |  |  | 27% | 20% | 
17 | PL-1510 (Ac-RFFCNAF-NH2; also: ReO[V] metal complex) | 31% | 21% |  |  | 
18 | PL-839 (Ac-HFWC-NH2; also: ReO[V] metal complex) |  |  |  |  | % Inhibition MC4-R (hMC4-R; [2]): 9%; % Inhibition MC1-R (B-16) [1, 3]: 12%
19 | PL-1092 ([βAla]GK(Tfa)CW-NH2; also: ReO complex) |  |  | 4% | 4% | 
20 | PL-1863 (Ac-FFC[2Abz]K-NH2; also: ReO[V] complex) | 6% | 19% |  |  | 
21 | PL-1512 (Ac-RFFNACF-NH2; also: ReO[V] metal complex) | 24% | 20% |  |  | 
22 | PL-1299 (Heptanoyl-[βAla]RCW-NH2; also: ReO[V] metal complex) |  |  | 19% | 1% | 
23 | PL-1511 (Ac-RFFNCAF-NH2; also: ReO[V] metal complex) | 26% | 21% |  |  | 
24 | PL-1861 (Ac-FFC[4Abz]K-NH2; also: ReO[V] complex) | −14% | 0% |  |  | 
25 | PL-1344 (Heptanoyl-RFHCW-NH2; also: ReO[V] metal complex) |  |  |  |  | % Inhibition MC4-R (hMC4-R; [2]): 81%; % Inhibition MC1-R (B-16) [1, 3]: 89%

Row | Substance | % Inhibition MC4-R (hMC4-R; [4]) | % Inhibition MC1-R (B-16) [1, 4] | % Inhibition MC4-R (hMC4-R; [5]) | % Inhibition MC1-R (B-16) [1, 6] | also measured
26 | PL-1073 (Ac-A[Tle]CW-NH2; also: ReO complex) |  |  | 13% | −6% | 
27 | PL-1320 (Hydrocinnamoyl-RWC[Nle]-NH2; also: ReO[V] metal complex) |  |  |  |  | % Inhibition MC4-R (hMC4-R; [2]): 94%; % Inhibition MC1-R (B-16) [1, 3]: 96%
28 | PL-1450 (Ac-[Nle]AHFRCW-NH2; also: ReO[V] metal complex) | 66% | 73% |  |  | 
29 | PL-1315 (Ac-RW[Nle]CF-NH2; also: ReO[V] metal complex) |  |  |  |  | % Inhibition MC4-R (hMC4-R; [2]): 70%; % Inhibition MC1-R (B-16) [1, 3]: 69%
30 | PL-1091 ([βAla]GC(Bn)CW-NH2; also: ReO complex) |  |  | 13% | −1% | 
31 | PL-1859 (Ac-FFC[Tic]K-NH2; also: ReO[V] complex) | −8% | 9% |  |  | 
32 | PL-1505 (Ac-RF[2Nal]NCF-NH2; also: ReO[V] complex) | 29% | 45% |  |  | 
33 | PL-1406 (Heptanoyl-RFHCW-NH2; also: ReO[V] metal complex) |  |  | 42% | 32% | 
34 | PL-1093 ([βAla]G[Phe(2,4-Cl2)]CW-NH2; also: ReO complex) |  |  | 2% | 2% | 
35 | PL-1606 (Ac-[Nle]RA[Aic]CW-NH2; also: ReO[V] metal complex) | 63% | 44% |  |  | 
36 | PL-1114 ([βAla]HFCW-NH2; also: ReO[V] metal complex) |  |  |  |  | % Inhibition MC4-R (hMC4-R; [2]): 10%; % Inhibition MC1-R (B-16) [1, 3]: 2%
37 | PL-814 (Ac-HFCW-NH2; also: ReO[V] metal complex) |  |  | 0% | −4% | 
38 | PL-1504 (Ac-RF[2Nal]NCF-NH2; also: ReO[V] complex) | 21% | 36% |  |  | 
39 | PL-1090 (Ac-AXCW-NH2; not fully specified (residue 2); printed as Ac-L-Ala-L-Tyr(3′,5′ di-I, 4′-Ac)-L-Cys-L-Trp-NH2; also: ReO[V] metal complex) |  |  | 10% | 2% | 
40 | PL-1862 (Ac-FFC[3‑Abz]K-NH2; also: ReO[V] complex) | −7% | 17% |  |  | 
41 | PL-1926 ({Bz′}-Arg-Trp-Cys-NH2; also: ReO[V] complex) | 7% | 25% |  |  | 
42 | PL-1089 (Ac-A[Phe(4-F)]CW-NH2; also: ReO complex) |  |  |  |  | % Inhibition MC4-R (hMC4-R; [2]): 10%; % Inhibition MC1-R (B-16) [1, 3]: 0%
43 | PL-1348 (Ac-RHFCW-NH2; also: ReO[V] metal complex) |  |  |  |  | % Inhibition MC4-R (hMC4-R; [2]): 51%; % Inhibition MC1-R (B-16) [1, 3]: 57%
44 | PL-1096 ([βAla]GLCW-NH2; also: ReO complex) |  |  |  |  | % Inhibition MC4-R (hMC4-R; [2]): 12%; % Inhibition MC1-R (B-16) [1, 3]: 6%
45 | PL-1635 (Ac-[Nle]RA[Ac3c]CW-NH2; also: ReO[V] complex) | 43% | 14% |  |  | 
46 | PL-1360 (Ac-RWFCH-NH2; also: ReO[V] metal complex) |  |  |  |  | % Inhibition MC4-R (hMC4-R; [2]): 62%; % Inhibition MC1-R (B-16) [1, 3]: 57%
47 | PL-1507 (Ac-RFFNCF-NH2; also: ReO[V] metal complex) | 22% | 20% |  |  | 
48 | PL-1094 ([βAla]G[Phe(2-Cl)]CW-NH2; also: ReO complex) |  |  |  |  | % Inhibition MC4-R (hMC4-R; [2]): 19%; % Inhibition MC1-R (B-16) [1, 3]: 57%
49 | PL-1334 (Hydrocinnamoyl-[Nle]WCR-NH2; also: ReO[V] metal complex) |  |  | 12% | 26% | 
